The text below walks through data of patent US9081017.

The experiment deals with TNFR2 (human, endogenous in kidney tissue and cultured EC) (human) (UniProt P20333). Kind of experiment: cell-based or functional assay.
Chain of TNFR2 (human, endogenous in kidney tissue and cultured EC) (human) (P20333 23-461): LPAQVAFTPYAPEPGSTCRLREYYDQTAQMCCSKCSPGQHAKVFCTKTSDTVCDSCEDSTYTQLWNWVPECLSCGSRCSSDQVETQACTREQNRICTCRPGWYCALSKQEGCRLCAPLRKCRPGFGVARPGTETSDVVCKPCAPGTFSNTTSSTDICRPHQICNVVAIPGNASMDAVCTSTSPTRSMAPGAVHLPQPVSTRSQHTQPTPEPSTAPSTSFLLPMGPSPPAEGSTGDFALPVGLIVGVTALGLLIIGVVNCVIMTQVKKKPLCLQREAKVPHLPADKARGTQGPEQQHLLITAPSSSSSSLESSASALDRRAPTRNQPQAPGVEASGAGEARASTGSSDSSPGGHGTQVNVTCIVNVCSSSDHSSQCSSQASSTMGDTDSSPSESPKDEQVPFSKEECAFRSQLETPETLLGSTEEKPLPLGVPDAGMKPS

The substance “R2-TNF (TNF mutein D143N, A145R) (from UniProt P01375 77-233) (ligand)” had a Proliferative index (PI), percentage of PCNA-positive tubular cell nuclei, human kidney organ culture of 50%.
